Reference: patent US12534510B2, “Peptide-receptive MHC-I complex compositions and methods” (priority 2020, dated 2026)
Values belong to the substance of their own block, whether it stands above or below them.

Legend:
[1] = biological target: HLA-A*24:02/TAPBPR complex (Homo sapiens, UniProt P04439, D101N/D140Y/D185E/E176V/E190D/F33S/G103R/G107R/I119L/I121M/I306V/K335N/L105A/L180Q/L300P/N151K/N90K/Q86E/Q94H/R106L/R138H/R89G/T104I/T345S/V100E/W191G/Y123F); assay: Native gel dissociation of MHC-I/TAPBPR complex by peptide; assay type: biochemical; settings: HLA-A*24:02 refolded with gNEF, 10-fold molar excess peptide
[2] = biological target: T1, H-2L^d/TAPBPR complex (Mus musculus, UniProt P01897); assay: SEC TAPBPR binding assay with LC-MS peptide occupancy; parameters: species or system murine; settings: 10 mM Gly-Phe dipeptide (GF)
T1 construct: Plasmid DNA encoding the luminal domain of class I MHC (MHC-I) heavy chains H-2D^d, HLA-A*02:01, H-2L^d; made in house; Drosophila S2 for TAPBPR
Protocol: Complexes were resolved on an Superdex 200 10/300 increase column (GE healthcare) at a flow rate of 0.5 mL/min in 100 mM NaCl and 20 mM sodium phosphate pH 7.2 at room temperature. MHC-I/TAPBPR complexes eluted at 26.5 min.

[3] = system: B4.2.3 TCR transgenic T cell line; assay: Tetramer staining by flow cytometry; assay type: cell-based, murine; parameters: dose or concentration left out as unconfirmed; settings: stoichiometric (1:1) or catalytic (1:100) TAPBPR:MHC ratio
[4] = biological target: H-2D^d (Mus musculus, UniProt P01900); settings: cited from earlier work
[5] = biological target: H-2D^d/TAPBPR complex (Mus musculus, UniProt P01900)
[6] = nanoDSF melting temperatures; assay type: physicochemical
Protocol: In a volume of 20 μl, 1 μM peptide deficient HLA-A*02:01/TAPBPR was incubated with 20 μM of various peptides (FIG. 22) in a buffer of 20 mM sodium phosphate pH 7.2, 100 mM NaCl, 0.02% TWEEN-20 for at least one hour. 10 ul of each sample was loaded on the Prometheus NT.48 instrument (NanoTemper™) using the high sensitivity capillaries. NanoDSF™ measurements are performed using a temperature ramp rate of 1° C./min from 25° C. to 95° C. and an LED intensity of 20%. Data was analyzed using the PR Control software (NanoTemper™). Melting temperatures (Tm values) correspond to the inflection points of the first derivative of the 330/350 nm fluorescence ratio. Experiments were performed in duplicates and the shaded areas (FIG. 17b) are representative of the error.

[7] = biological target: HLA-A*68:02/TAPBPR complex (Homo sapiens, UniProt P04439, A269V/D140Y/D185E/E176V/E277Q/E87N/F33Y/G231S/I121R/I166T/I218V/L180W/L300P/L318F/N151K/P208A/P217A/Q86R/R138H/R169H/S129P/T345S/V36M); assay: Native gel dissociation of MHC-I/TAPBPR complex by peptide; assay type: biochemical; settings: HLA-A*68:02 refolded with gTAX, 10-fold molar excess peptide

- effect of peptide on MHC-I/TAPBPR complex [1]: complex dissociation
Substance: QYNPIRTTF (Sequence is synthesized) [PHOX2B]

Substance: QLSPFPFDL [QL9]
- fate of bound peptide in the presence of TAPBPR [2]: empty H-2L^d/TAPBPR complexes were obtained

Substance: AGPARAAAL (Sequence is synthesized)
- tetramer staining [3]: No staining

Substance: PNVNIHNF
- fate of bound peptide in the presence of TAPBPR [2]: remained bound

Substance: GPGRAFVTI [gP18-I10]
- increase in the peptide off-rate relative to full-length P18-I10 peptide [4]: 100 fold
- fate of bound peptide in the presence of TAPBPR [5]: dissociated in the presence of TAPBPR

Substance: TAPBPR: chaperone protein homologue of Tapasin, luminal domain expressed in Drosophila S2 cells
- Tm (nanoDSF inflection point) [6]: 52.5 °C

Substance: RYPLTFGWCF (Sequence is synthesized) [Nef134-10]
- effect of peptide on MHC-I/TAPBPR complex [1]: complex dissociation

- effect of peptide on MHC-I/TAPBPR complex [1]: remain bound
- effect of peptide on MHC-I/TAPBPR complex [7]: remain bound
Substance: YPNVNIHNF (Sequence is synthesized) [p29, irrelevant, nonspecific peptide used as negative control]
